The values that follow come from paper PMC4403245.

For this experiment, the target named is GST-tagged KAHRP fragment K1D (Plasmodium falciparum) (UniProt P06719). Briefly: SPR. (In general: SPR reads the build-up and loss of mass on a sensor chip optically.)
Sequence of UniProt P06719 (P06719 35-657): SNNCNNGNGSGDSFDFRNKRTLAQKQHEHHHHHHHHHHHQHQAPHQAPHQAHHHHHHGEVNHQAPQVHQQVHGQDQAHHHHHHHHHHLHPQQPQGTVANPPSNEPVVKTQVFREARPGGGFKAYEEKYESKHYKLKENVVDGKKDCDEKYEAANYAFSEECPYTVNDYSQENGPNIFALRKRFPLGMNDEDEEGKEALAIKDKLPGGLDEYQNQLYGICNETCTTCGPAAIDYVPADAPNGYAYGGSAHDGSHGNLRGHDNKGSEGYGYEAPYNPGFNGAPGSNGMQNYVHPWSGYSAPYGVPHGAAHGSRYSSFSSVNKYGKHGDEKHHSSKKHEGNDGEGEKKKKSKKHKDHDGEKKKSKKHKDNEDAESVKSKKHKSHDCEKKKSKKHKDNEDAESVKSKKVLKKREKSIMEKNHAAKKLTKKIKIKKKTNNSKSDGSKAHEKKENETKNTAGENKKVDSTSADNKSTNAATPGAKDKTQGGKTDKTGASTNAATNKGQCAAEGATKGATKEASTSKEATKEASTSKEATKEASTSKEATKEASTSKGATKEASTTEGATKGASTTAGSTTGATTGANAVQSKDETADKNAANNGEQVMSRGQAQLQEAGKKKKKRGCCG

“MBP-tagged D3 subdomain of the ankyrin R membrane-binding domain (from UniProt P16157 404-601) (domain or fragment)”: the dissociation constant Kd (usually the constant that tells how readily two partners part at equilibrium) came out at 46 nM; the koff – broadly, a measure of how fast the partners let go of each other – was 0.00137 s⁻¹; the kon (commonly a measure of how fast the partners come together) came to 29900 M⁻¹ s⁻¹.

“MBP-tagged ankyrin R N-terminal 89 kDa membrane binding domain (from UniProt P16157 1-827) (domain or fragment)”: the Kd stood at 38 nM, the koff was 0.00161 s⁻¹ and the on-rate constant (kon) was found to be 42800 M⁻¹ s⁻¹.
